Data on 13 molecules can be found in patent US20080124340A1.

What is called Kd is the free concentration of one partner at which half of the binding sites on the other are occupied at equilibrium, for simple one-to-one binding. For orientation: koff means the rate constant with which the complex falls apart. The kon is the second-order rate constant of association.

T1: human erythropoietin receptor (huEpoR), cell surface expressed (human) (UniProt P19235)
T1 sequence (looked up): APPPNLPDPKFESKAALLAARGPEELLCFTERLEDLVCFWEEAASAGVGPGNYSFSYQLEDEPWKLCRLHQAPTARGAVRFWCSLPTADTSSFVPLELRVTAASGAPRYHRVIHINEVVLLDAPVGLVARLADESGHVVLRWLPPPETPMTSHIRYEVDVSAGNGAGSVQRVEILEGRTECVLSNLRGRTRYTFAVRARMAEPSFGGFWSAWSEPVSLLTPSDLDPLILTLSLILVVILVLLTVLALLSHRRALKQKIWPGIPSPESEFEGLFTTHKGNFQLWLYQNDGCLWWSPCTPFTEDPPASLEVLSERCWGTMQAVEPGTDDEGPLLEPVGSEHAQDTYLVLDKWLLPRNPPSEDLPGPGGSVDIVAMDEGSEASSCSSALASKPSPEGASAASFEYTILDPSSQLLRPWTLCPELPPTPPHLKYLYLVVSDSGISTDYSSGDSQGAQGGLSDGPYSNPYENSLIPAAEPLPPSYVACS

T2: soluble human erythropoietin receptor protein (huEpoR) (human) (UniProt P19235)
T2 sequence (looked up): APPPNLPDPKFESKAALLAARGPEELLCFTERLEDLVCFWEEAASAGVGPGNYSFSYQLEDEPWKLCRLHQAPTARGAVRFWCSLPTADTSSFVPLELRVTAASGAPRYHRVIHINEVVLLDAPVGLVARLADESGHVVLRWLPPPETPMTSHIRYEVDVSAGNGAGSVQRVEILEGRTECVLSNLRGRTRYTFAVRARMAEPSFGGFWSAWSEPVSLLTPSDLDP

B1: clone 318 scFv-Fc protein (Fc fusion, part only; not given: scFv linker and IgG1 Fc, not shown: a dimerising Fc or GST)
scFv, part: QVQLVESGGGLVQPGGSLRLSCAVSGFTFSKYWMTWVRQAPGKGLEWVANIKPDGSEKYYVESVKGRFTISRDNAKNSVYLQMNSVRAEDTAVYYCARVSRGGSFSDWGQGTLVTVSSQSVLTQPPSASGSPGQSVTISCTGTSSDVGGYNYVSWYQQHPGRAPKLIIYEVSKRPSGVPDRFSGSKSGNTASLTVSGLQADDEADYYCNSYAGSIYVFGSGTKVTVL
B2: clone 323 scFv-Fc protein (Fc fusion, part only; not given: scFv linker and IgG1 Fc, not shown: a dimerising Fc or GST)
scFv, part: QVQLVESGGGLVQPGGSLRLSCAVSGFTFSKYWMTWVRQAPGKGLEWVANIKPDGSEKYYVESVKGRFTISRDNAKNSVYLQMNSVRAEDTAVYYCARVSRGGSFSDWGRGTMVTVSSQSALTQPASVSGSPGQSITISCTGTSSDVGSYNLVSWYQQHPGKVPKLIIYEVSNRPSGVSHRFSGSKSGNTASLTISGLQAEDEADYYCSSLTSSGTWVFGGGTKVTVL
B3: clone 295 scFv-Fc protein (Fc fusion, part only; not given: scFv linker and IgG1 Fc, not shown: a dimerising Fc or GST)
scFv, part: EVQLVESGGGLVQPGGSLRLSCAASGFTFSSYAMSWVRQAPGKGLEWVSGISGSGSSEGGTYYADSVKGRFTLSRDNSKNTLYLQMNSLRAEDTALYYCVKDRPSRYSFGYYFDYWGRGTLVTVSSLPVLTQPPSVSVSPGQTASIACSGNKLGDKYVSWYQQKPGQSPLLVIYQDTKRPSGIPERFSGSNSGNTATLTISGTQAMDEADYYCQAWDSSTDVVFGGGTKLTVL
B4: clone 352 scFv-Fc protein (Fc fusion, part only; not given: scFv linker and IgG1 Fc, not shown: a dimerising Fc or GST)
scFv, part: EVQLVQSGGGLVQPGGSLRLSCAASGFRFSSYWMTWVRQAPGKGLEWVANIKPDGSEKYYVDSVKGRFTMSRDNAKNSVYLQMNSLRAEDTAVYYCARVSRGGSFSDWGQGTLVTVSSQSALTQPASVSGSPGQSITIPCTGTSSDIGTYDYVSWYQQHPGKVPKVIIYEVTNRPSGVSNRFSGSKSGNTASLTISGLQADDEADYYCNSFTKNNTWVFGGGTKLTVL
B5: clone 15 scFv-Fc protein (Fc fusion, part only; not given: scFv linker and IgG1 Fc, not shown: a dimerising Fc or GST)
scFv, part: QVQLQESGPGLVRPSGTLSLTCAVSGGSIGSSNWWSWVRQAPGKGLEWIGEISQSGSTNYNPSLKGRVTISLDRSRNQLSLKLSSVTAADTAVYYCARQLRSIDAFDIWGPGTTVTVSASYVLTQPPSVSVSPGLTATITCSGDKLGDKYASWYQQKPGQSPVLVIYQDRKRPSGIPERFSGSNSGNTATLTISGTQAVDEADYYCQAWDSDTSYVFGTGTQLTVL
B6: clone 307 scFv-Fc protein (Fc fusion, part only; not given: scFv linker and IgG1 Fc, not shown: a dimerising Fc or GST)
scFv, part: EVQLVESGGGLVQPGGSLRLSCAVSGFTFSKYWMTWVRQAPGKGLEWVANIKPDGSEKYYVESVKGRFTISRDNAKNSVYLQMNSVRAEDTAVYYCARVSRGGSFSDWGQGTMVTVSSQSVLTQPPSASGSPGQSVTISCTGTSSDVGGYNYVSWYQQHPDKAPRLMIYDVNKRPSGVPDRFSGSKSGNTASLTVSGLQAEDEAHYYCNSYAGSNNWVFGGGTQLTVL
B7: clone 276 scFv-Fc protein (Fc fusion, part only; not given: scFv linker and IgG1 Fc, not shown: a dimerising Fc or GST)
scFv, part: EVQLVQSGGGLVQPGGSLRLSCAASGFTFSSYWMSWVRQAPGKGLEWVANIKPDGSEKYYVDSVKGRFTISRDNAKNSVYLQMNSLRAEDTAVYYCARVSRGGSYSDWGRGTMVTVSSQSVLTQPPSASGSPGQSVTISCTGTSSDVGGFNYVSWYQKYPGKAPKLVIYEVSKRPSGVPDRFSGSKSGNTASLTVSGLQAEDEADYYCSSWAPGKNLFGGGTKLTVL
B8: clone 201 scFv-Fc protein (Fc fusion, part only; not given: scFv linker and IgG1 Fc, not shown: a dimerising Fc or GST)
scFv, part: QVQLQESGSGLARPSQTLSLTCAVSGGSISSSAFSWNWIRQPPGKGLEWIGYIYHTGITDYNPSLKSRVTISVDRSKNQFSLNVNSVTAADTAVYYCARGHGSDPAWFDPWGKGTLVTVSSQSVLTQPPSVSVSPGQTASITCSGDKLGDKYASWYQQRPGQSPVLVIYRDTKRPSGIPERFSGSNSGNTATLTISGTQAVDEADYYCQAWDSTTSLVFGGGTKLTVL
B9: clone 330 scFv-Fc protein (Fc fusion, part only; not given: scFv linker and IgG1 Fc, not shown: a dimerising Fc or GST)
scFv, part: EVQLVESGGGLVQPGGSLRLSCAVSGFTFSKYWMTWVRQAPGKGLEWVANIKPDGSEKYYVESVKGRFTISRDNAKNSVYLQMNSVRAEDTAVYYCARVSRGGSFSDWGQGTLVTVSSQSALTQPPSASGSPGQSVTISCTGTSSDVGAYNYVSWYQQHPGKAPKLMIYEVARRPSGVPDRFSGSKSGNTASLTVSGLQAEDEADYYCSSYAGSNNFAVFGRGTKLTVL
B10: clone 319 scFv-Fc protein (Fc fusion, part only; not given: Linker and IgG1 Fc, not shown: another chain or arm of the molecule; a dimerising Fc or GST; small tags and cut ends)
VH: QVQLVQSGAEIKKPGASVKVSCKTFGSPFSTNDIHWVRQAPGQGLEWMGIIDTSGAMTRYAQKFQGRVTVTRETSTSTVYMELSSLKSEDTAVYYCAREGCTNGVCYDNGFDIWGQGTLVTVSS
VL: DIQMTQSPSTLSASIGDRVTITCRASEGIYHWLAWYQQKPGKAPKLLIYKASSLASGAPSRFSGSGSGTDFTLTISSLQPDDFATYYCQQYSNYPLTFGGGTKLEIK
B11: clone 13 scFv-Fc protein (Fc fusion, part only; not given: scFv linker and IgG1 Fc, not shown: a dimerising Fc or GST)
scFv, part: QVQLQQSGGGVVQPGRSLRLSCAASGFTFSDYAMHWVRQAPGKGLEWVAVISNHGKSTYYADSVKGRFTISRDNSKHMLYLQMNSLRADDTALYYCARDIALAGDYWGQGTLVTVSADIQMTQSPSSLSASVGDRVTITCRASQSISSYLNWYQQLPGKVPKLLIYGASKLQSGVPSRFSGSGSGTDFTLTISSLQPEDFATYYCLQDYNYPLTFGPGTRLEIK
B12: clone 378 scFv-Fc protein (Fc fusion, part only; not given: scFv linker and IgG1 Fc, not shown: a dimerising Fc or GST)
scFv, part: QVQLVESGGGLVQPGRSLILSCAVSGFTFSKYWMTWVRQAPGKGLEWVANIKPDGSEKYYVESVKGRFTISRDNAKNSVYLQMNSVRAEDTAVYYCARVSRGGSFSDWSQGTLVTVSSQSALTQPPSASGSPGQSVTISCTGTSGDVGAYNYVSWYQQYPGKAPKLMIYEVSKRPSGVPDRFSGSKSGNTASLTVSGLQAEDEADYYCNSYRGSNGPWVFGGGTKVTVL
B13: clone 16 scFv-Fc protein (Fc fusion, part only; not given: scFv linker and IgG1 Fc, not shown: a dimerising Fc or GST)
scFv, part: QVQLQESGPGLVKPSETLSLTCTVSGGYINNYYWSWIRQPPGKGLEWIGYIHYSGSTYYNPSLKSRVTISEDTSKNQFSLKLSSATAADTAVYYCARVGYYYDSSGYNLAWYFDLWGRGTLVTVSASSELTQDPAVSVALGQTVRITCQGDNLRSYSATWYQQKPGQAPVLVLFGENNRPSGIPDRFSGSKSGDTAVLTITGTQTQDEADYYCTSRVNSGNHLGVFGPGTQLTVL

The first test concerns the target cynomolgus monkey EpoR (cynoEpoR) (cynomolgus monkey). The test is described as follows: SPR, Biacore T100; scFv-Fc captured on CM5 chip, EpoR as analyte; fit to steady-state model (off-rate too rapid); clone #318, cynomolgus EpoR, steady-state fit. (Surface plasmon resonance follows binding to a sensor surface in real time, without labels.)
For the molecule B1, the dissociation constant (Kd) is 4890 nM.

Another test concerns the target T1, human erythropoietin receptor (huEpoR), cell surface expressed (human). The test is described as follows: cell-based or functional assay.
Consider B2, for which the Average EC50, UT-7-luciferase assay came to 0.613 nM.
Same read-out and setting: the result for B3 reads 0.607 nM; that for B4, 2.16 nM; that for B1, 0.0154 nM.
For B5, the Average EC50, UT-7-luciferase assay is 2.8 nM.
On the same count and under the same terms, the value for B6 was 0.381 nM.
Molecule B7 showed an Average EC50, UT-7-luciferase assay of 0.322 nM.
Same read-out and setting: the value for B8 was 8.28 nM; that for B9 was 0.0075 nM.
Same read-out and setting: the result for B10 reads 5.87 nM.
On the same count and under the same terms, the value for B11 was 4.03 nM.
Molecule B12 came in with an Average EC50, UT-7-luciferase assay of 0.055 nM.

Another test addresses T2, soluble human erythropoietin receptor protein (huEpoR) (human). Kind of test: SPR, Biacore T100; scFv-Fc captured by anti-human IgG Fc on CM5 chip, EpoR as analyte.
In the case of B3, the Kd came to 163 nM, the koff was 0.00296 s⁻¹ and the association rate constant (kon) was 18000 M⁻¹ s⁻¹.
For B1 the same measures were 847 nM, 0.558 s⁻¹ and 659000 M⁻¹ s⁻¹.
B5 returned a Kd of 1950 nM, an off-rate (koff) of 0.119 s⁻¹ and an association rate constant (kon) of 61000 M⁻¹ s⁻¹.
For B6 the same measures were 108 nM, 0.246 s⁻¹ and 2.28e+06 M⁻¹ s⁻¹.
For B8 the same measures were 4030 nM, 0.0187 s⁻¹ and 4600 M⁻¹ s⁻¹.
For B9, in that order: 45.4 nM, 0.0373 s⁻¹ and 822000 M⁻¹ s⁻¹.
Consider B13, for which the equilibrium dissociation constant (Kd) stood at 2190 nM, the off-rate constant (koff) was found to be 0.142 s⁻¹ and the on-rate (kon) came to 65000 M⁻¹ s⁻¹.
In turn, B10 displayed a Kd of 212 nM, a koff of 0.0335 s⁻¹ and a kon of 158000 M⁻¹ s⁻¹.
For B11 the same measures were 1040 nM, 0.0568 s⁻¹ and 55000 M⁻¹ s⁻¹.

The target of the next test is cynomolgus monkey EpoR (cynoEpoR) (cynomolgus monkey). The description is as above.
Regarding B3, the Kd worked out at 539 nM, the koff amounted to 0.0221 s⁻¹ and the on-rate (kon) stood at 41000 M⁻¹ s⁻¹.
For B5, in that order: 3130 nM, 0.115 s⁻¹ and 37000 M⁻¹ s⁻¹.
For B6, in that order: 1210 nM, 0.361 s⁻¹ and 299000 M⁻¹ s⁻¹.
Take B8: the Kd came to 18600 nM, the off-rate constant (koff) amounted to 0.0508 s⁻¹ and the on-rate constant (kon) is 2700 M⁻¹ s⁻¹.
Turning to B9, the Kd came out at 890 nM, the dissociation rate constant (koff) stood at 0.0965 s⁻¹ and the association rate constant (kon) is 108000 M⁻¹ s⁻¹.
In turn, B13 gave a Kd of 4360 nM, a dissociation rate constant (koff) of 0.283 s⁻¹ and an on-rate constant (kon) of 65000 M⁻¹ s⁻¹.
For B10, in that order: 121 nM, 0.0258 s⁻¹ and 213000 M⁻¹ s⁻¹.
With B11, the Kd was 920 nM, the koff amounted to 0.0597 s⁻¹ and the kon was 65000 M⁻¹ s⁻¹.
